These results are taken from patent US9113649B2, “Food additive comprising an amidase for detoxifying ochratoxin” (DuPont Nutrition Biosciences ApS, priority 2010, dated 2015).

Where two headings read alike, the source gives them in different places.

The conditions of series [1]: rat, in vivo; cited from earlier work.
Series [2] is classed as biochemical. Particulars: for ability to degrade ochratoxin A: enzyme screen, 20 h. The method, then:
Activity was expressed in % OT-α (product of OTA) area: the area corresponding to the product divided by the total area (peak area of OTA plus OT-α).
The buffers employed in the assay were: 50 mM sodium acetate buffer (pH 4, 4.5, 5 and 5.5); 50 mM MES buffer (pH 6, 6.5 and 7); 0.2M Mops-NaOH) pH7.0), 50 mM Tris-HCl buffer (pH 7.5, 8 and 8.5). Ochratoxin A (OTA) solution (1 mg/mL) was made of 5 mg ochratoxin A (Sigma, ref. 32937) dissolved in ethanol/water (60/40) and stored at −20° C. Screening assays were performed with […] OTA solution and different enzyme concentrations (for example, 0.1-5 mg/ml) in a final volume of 300 μL. Enzymatic reactions were done at 37° C. for 20 h±1 h under constant agitation. Samples were filtered using syringe filter 0.20 μm for HPLC analysis. The HPLC apparatus consisted of a Dionex P580 pump and Dionex ASI-100 autosampler connected to a Dionex RF-2000 fluorescence detector (λex=333 nm; λem=460 nm) and a Dionex UVD340 U UV detector at 257 nm. Elution was through a nucleosil 100-5 C18 column (250×4.6 mm, 5 μm particle size; Chrompack) with water/acetonitrile/acetic acid (100:100:1, v/v/v) at a 0.6 mL/min flow-rate. The column was kept at 30° C. and was connected to guard column (C18, 1 mm, Optimize technologies). The OTA and its degradation products were monitored both by uv at 235 nm and fluorescence (excitation at 278 nm emission at 440 nm).
Thirty enzymes including various lipases, proteases and amdiases were investigated for their ability to degrade ochratoxin A (Table 1). […] To facilitate the comparison of these three enzymes, the protein concentration of PEPAd was determined and enzyme solutions of carboxypeptidase A and Amano™ lipase A were prepared at the same concentration (1 mg/ml). A kinetic of the degradation was carried out (FIG. 1). […] Amano™ lipase A product was a mixture of different enzymes with the dominant activity being lipase. […] Other proteases, lipases and amidases listed in Table 1 were not able to break OTA down (data not shown).

A short description of series [3]: activity of three fungal amidases on ochratoxin A (intracellular cell-free fraction). Type of series: biochemical. The conditions noted are these: for Activity on ochratoxin A expressed as ochratoxin A peak area: remaining OTA, 20 μl intracellular cell-free fraction, pH7, 23° C., 17 h. The method, then:
The reaction mixture using OTA as substrate consisted of 75 μl phosphate (67 mM, pH7), 5 μl OTA (2.4 μg/ml) and 20 μl intracellular cell-free fraction. The reaction was performed at 23° C. for 17 h and stopped by adding 0.15 ml acetonitrile and analyzed on HPLC with an injection volume of 5 μl.

For series [4] the following is noted: Abrunhosa et al., Toxins 2010; cited from earlier work.

For the molecule `C[C@@H]1Cc2c(Cl)cc(C(=O)N[C@@H](Cc3ccccc3)C(=O)O)c(O)c2C(=O)O1` [OTA, ochratoxin A], the “elimination half-time in the body” value in series [1] is 103 h.

Turning to `C[C@@H]1Cc2c(Cl)cc(C(=O)O)c(O)c2C(=O)O1` [ochratoxin α], the “elimination half-time in the body” value in series [1] is on record as 9.6 h.

“porcine elastase: serine protease elastase from porcine pancreas (Sigma E0258) [reference compound]”: in series [2] (37° C.), the “ability to degrade ochratoxin A” value is “showed certain activity with OTA”.

B1: PEPAd: a Danisco aspartic acid protease cloned from A. niger (protein)
chain: MHLPQRLVTAACLCASATAFIPYTIKLDTSDDISARDSLARRFLPVPNPSDALADDSTSSASDESLSLNIKRIPVRRDNDFKIVVAETPSWSNTAALDQDGSDISYISVVNIGSDEKSMYMLLDTGGSDTWVFGSNCTSTPCTMHNTFGSDDSSTLEMTSEEWSVGYGTGSVSGLLGKDKLTIANVTVRMTFGLASNASDNFESYPMDGILGLGRTNDSSYDNPTFMDAVAESNVFKSNIVGFALSRSPAKDGTVSFGTTDKDKYTGDITYTDTVGSDSYWRIPVDDVYVGGTSCDFSNKSAIIDTGTSYAMLPSSDSKTLHSLIPGAKSSGSYHIIPCNTTTKLQVAFSGVNYTISPKDYVGATSGSGCVSNIISYDLFGDDIWLLGDTFLKNVYAVFDYDELRVGFAERSSNTTSASNSTSSGTSSTSGSTTTGSSTTTTSSASSSSSSDAESGSSMTIPAPQYFFSALAIASFMLWL
modifications: Aspergillus niger
Consider B1, for which the “conversion of OTA” value in series [2] (after 1 day reaction, 37° C., same protein concentration (1 mg/ml)) was “full conversion was not reached”. In addition, the “ability to degrade ochratoxin A” value in series [2] (37° C.) is on record as “showed an OTA converting activity although this was less efficient”.

B2: amidase from Aspergillus oryzae: hypothetical protein from Aspergillus oryzae (XP_001826758) expressed intracellularly in Aspergillus niger (protein, listed as Aspergillus oryzae)
chain: MHRMLTDDRLYRVDADLLIPGKGDPIPHGAVVWQCKTIRYAGPRSGVPTEFQGATTTHVPVVMPGMWDCHIHFLGATAATMNAIVDTPQALAGARSVPDLHATVMAGFTSVREVGGYGCDLAKAVGEGRIPGPNIYSSHSAISMTAGHGDVHGVHRDSLLDLCAHGLPLTIADGVPECLLAVRKQLRRGAKVIKVCASGGVVSAIDDPQHQEFSFEELKAIVDEAARARRVVAAHCHGKAGIMNALRAGCRTIEHGSFLDEEAVGLMKEKGAILVATRSVIESGLAMKDLFTPSSYQKLLAVADAHRKAYQLAISRGVTIALGTDQFISSDNPMIGYGRNGHEVRYAVDAGLTPLAAIEAATANGPLTLGYQAPQSGQLKEGYDADIIAVRENPLENVAVLSNSKNVTHVWRGGMLIKS
For B2, the “Activity on ochratoxin A expressed as ochratoxin A peak area” value (“Activity on ochratoxin A expressed” below) in series [3] is on record as 8.57.

B3: carboxypeptidase A: Carboxypeptidase A from bovine pancreas (Sigma) (protein, listed as Bos taurus)
chain: MQGLLILSVLLGAALGKEDFVGHQVLRITAADEAEVQTVKELEDLEHLQLDFWRGPGQPGSPIDVRVPFPSLQAVKVFLEAHGIRYRIMIEDVQSLLDEEQEQMFASQSRARSTNTFNYATYHTLDEIYDFMDLLVAEHPQLVSKLQIGRSYEGRPIYVLKFSTGGSNRPAIWIDLGIHSREWITQATGVWFAKKFTEDYGQDPSFTAILDSMDIFLEIVTNPDGFAFTHSQNRLWRKTRSVTSSSLCVGVDANRNWDAGFGKAGASSSPCSETYHGKYANSEVEVKSIVDFVKDHGNFKAFLSIHSYSQLLLYPYGYTTQSIPDKTELNQVAKSAVEALKSLYGTSYKYGSIITTIYQASGGSIDWSYNQGIKYSFTFELRDTGRYGFLLPASQIIPTAQETWLGVLTIMEHTLNNLY
In the case of B3, in series [2] (after 7 h reaction at 37° C., enzyme 1 mg/ml), the “conversion of OTA” value is listed as “full conversion of OTA was obtained”. Besides, the “ability to degrade ochratoxin A” value in series [2] (37° C.) is recorded as “able to breakdown OTA”. In addition, the ochratoxin degrading activity entry in series [4] is reported as “low ochratoxin degradding activity”.

B4: amidase from Glomerella graminicola: putative amidohydrolase from Glomerella graminicola (EFQ25792) expressed intracellularly in Trichoderma reesei (protein, listed as Glomerella graminicola)
chain: MGGSFRPNYADGPEPPFSPTKKTTLVIIKTSLLIPGDGEPLKDGALVISSKVIAWVGPQSSLPSEYADSPHRSYTVPYLMPGLWDCHAHFGGESPNDDGGNDPYQVFITEHPAASGARLTRGCWLALQRGYTSLRDVAGLGCEVSRAIEDGSIVGPNVYSSGSGLSQLAGHGDIFSLPAGDVLLNLGVSQITPGHFGTHATMIVDGVDECRRAVRLQIRRGAKCIKVMASGGVMSRDDNPNYAQFSAAELETIVEEATRQNRVVAAHVHGKAGILAAINAGVTTLEHASFADRECIDLIKEKGIVYIATRIVVHLLLSTGGKGLPPTVWEKAKLVAKNHMTAYKMAIESGVQIALGTDTGPGYNMATELECAVEAGMSNLEAIKAATANGPLSVGGQAPKTGQLKVGYEADVIGLLQNPVEDVKVLQKVDNVGWVWKGGKLFKGPGVGPWGEEPGVWEDITGVSRLRCTTGY
In the case of B4, the “Activity on ochratoxin A expressed” value in series [3] was 0.68.

B5: amidase from Metarhizium anisopliae: putative amidohydrolase from Metarhizium anisopliae (EFZ00058) expressed intracellularly in Trichoderma reesei (protein, listed as Metarhizium anisopliae)
chain: MTRRVIPHSESAESVDDAQHVSGRIYSTGFGIAVRTGQPQSQDDDAETGVKKVFYTIVMTKLLIPGDGEPIKDAALVVKNKIIDWVGRQADLPNEYTEKPHKLHNVPYLMPGLWDCHVHFAGSNGEREAEEGSTGLSFLADHPTTAGARLARGCWDAIQRGYTSMRDLAGFGCEISKAIEDGVIIGPNIYSAGACLSQLAGHGDVFALPAGDALLNLGLASVKAGQFGAGMSCLVDGVDECRRGVRLQIRRGAKCIKVMASGGVLSRDDNPLYAQFSREELDTIVSEAKRMERTVAAHVHGKPGILQAVEAGVTSVEHVSFADQECIDLIKDRGTIFVGTRTIVNLLLDSKGEGMPKKMWEKAKLVGTHSLEGYKKAIKAGCTIALGTDTEPGFNMAIELQYAVEAGMSSLEAIKAATANGPLTVAGQAPLTGQLKAGYEADMIGVCDNPVEDVKVLQKKSNIGWVWKGGKLFKGPGIGPWGEEL
In the case of B5, in series [3], the “activity in degrading ochratoxin A (in words)” value is reported as “showed activity in degrading ochratoxin A” and the “Activity on ochratoxin A expressed” value is given as 0.96.

B6: yeast carboxypeptidase Y: Carboxypeptidase Y from baker's yeast (Saccharomyces cerevisiae) (protein, listed as Saccharomyces cerevisiae)
chain: MKAFTSLLCGLGLSTTLAKAISLQRPLGLDKDVLLQAAEKFGLNLDLDHLLKELDSNVLDAWAQIEHLYPNQVMSLETSTKPKFPEAIKTKKDWDFVVKNDAIENYQLRVNKIKDPKILGIDPNVTQYTGYLDVEDEDKHFFFWTFESRNDPAKDPVILWLNGGPGCSSLTGLFFELGPSSIGPDLKPIGNPYSWNSNATVIFLDQPVNVGFSYSGSSGVSNTVAAGKDVYNFLELFFDQFPEYVNKGQDFHIAGESYAGHYIPVFASEILSHKDRNFNLTSVLIGNGLTDPLTQYNYYEPMACGEGGEPSVLPSEECSAMEDSLERCLGLIESCYDSQSVWSCVPATIYCNNAQLAPYQRTGRNVYDIRKDCEGGNLCYPTLQDIDDYLNQDYVKEAVGAEVDHYESCNFDINRNFLFAGDWMKPYHTAVTDLLNQDLPILVYAGDKDFICNWLGNKAWTDVLPWKYDEEFASQKVRNWTASITDEVAGEVKSYKHFTYLRVFNGGHMVPFDVPENALSMVNEWIHGGFSL
Consider B6, for which the “ability to degrade ochratoxin A” value in series [2] (37° C.) was “showed certain activity with OTA”. In addition, the ochratoxin degrading activity entry in series [4] is listed as “low ochratoxin degradding activity”.
